Experimental data reported in the Immune Epitope Database (IEDB).

Assays:
[1] = molecular target: HLA-C*03:03; assay: IEDB peptide-MHC binding, purified MHC/direct/fluorescence; filed as Kd, often an IC50 or EC50 that approximates it; ≥ and ≤ were set here for values at or beyond the usual limits of such assays; details: source organism: Mus musculus
[2] = molecular target: HLA-B*51:01; assay: IEDB peptide-MHC binding, purified MHC/competitive/fluorescence; ≥ and ≤ were set here for values at or beyond the usual limits of such assays; details: source organism: Mus musculus
[3] = molecular target: HLA-A*03:01; assay: IEDB peptide-MHC binding, purified MHC/competitive/fluorescence; filed as Kd, often an IC50 or EC50 that approximates it; ≥ and ≤ were set here for values at or beyond the usual limits of such assays; details: source organism: Yersinia pestis Nepal516
[4] = molecular target: HLA-B*58:01; assay: as above
[5] = molecular target: HLA-B*39:01; assay: as above
[6] = molecular target: HLA-B*51:01; assay: as above; details: source organism: Orthohantavirus andesense
[7] = molecular target: HLA-B*15:01; assay: as above; details: source organism: Orthohantavirus andesense
[8] = molecular target: HLA-B*27:03; assay: as above
[9] = molecular target: HLA-A*69:01; assay: as above
[10] = molecular target: HLA-A*26:01; assay: as above
[11] = molecular target: HLA-B*18:01; assay: as above
[12] = molecular target: HLA-A*02:01; assay: as above
[13] = molecular target: HLA-B*46:01; assay: as above
[14] = molecular target: HLA-A*03:01; assay: IEDB peptide-MHC binding, purified MHC/direct/fluorescence; filed as Kd, often an IC50 or EC50 that approximates it; ≥ and ≤ were set here for values at or beyond the usual limits of such assays
[15] = molecular target: HLA-A*02:11; assay: as above
[16] = molecular target: HLA-A*02:03; assay: as above
[17] = molecular target: HLA-A*02:19; assay: as above
[18] = molecular target: HLA-A*02:16; assay: as above
[19] = molecular target: HLA-A*02:12; assay: as above
[20] = molecular target: HLA-A*68:02; assay: as above
[21] = molecular target: HLA-B*07:02; assay: as above
[22] = molecular target: HLA-B*08:01; assay: as above; details: source organism: Escherichia coli O157:H7
[23] = molecular target: HLA-B*15:01; assay: as above
[24] = molecular target: HLA-B*35:01; assay: as above
[25] = molecular target: HLA-A*69:01; assay: as above; details: source organism: Escherichia coli O157:H7
[26] = molecular target: HLA-B*27:05; assay: as above; details: source organism: Escherichia coli O157:H7
[27] = molecular target: HLA-A*26:01; assay: as above
[28] = molecular target: HLA-A*31:01; assay: as above; details: source organism: Escherichia coli O157:H7
[29] = molecular target: HLA-A*24:03; assay: as above
[30] = molecular target: HLA-A*11:01; assay: as above; details: source organism: Escherichia coli O157:H7
[31] = molecular target: HLA-B*40:01; assay: as above; details: source organism: Escherichia coli O157:H7
[32] = molecular target: HLA-B*44:02; assay: as above; details: source organism: Escherichia coli O157:H7
[33] = molecular target: HLA-A*01:01; assay: as above; details: source organism: Escherichia coli O157:H7
[34] = molecular target: HLA-B*58:01; assay: as above; details: source organism: Escherichia coli O157:H7
[35] = molecular target: HLA-A*02:01; assay: as above
[36] = molecular target: HLA-B*39:01; assay: as above; details: source organism: Encephalitozoon cuniculi GB-M1
[37] = molecular target: HLA-B*51:01; assay: as above; details: source organism: Encephalitozoon cuniculi GB-M1
[38] = molecular target: HLA-B*27:03; assay: as above; details: source organism: Encephalitozoon cuniculi GB-M1
[39] = molecular target: HLA-B*18:01; assay: as above; details: source organism: Encephalitozoon cuniculi GB-M1
[40] = molecular target: HLA-B*57:01; assay: as above; details: source organism: Encephalitozoon cuniculi GB-M1
[41] = molecular target: HLA-B*46:01; assay: as above; details: source organism: Encephalitozoon cuniculi GB-M1
[42] = molecular target: HLA-B*58:01; assay: IEDB peptide-MHC binding, purified MHC/competitive/fluorescence; ≥ and ≤ were set here for values at or beyond the usual limits of such assays; details: source organism: Homo sapiens
[43] = molecular target: HLA-A*29:02; assay: IEDB peptide-MHC binding, purified MHC/direct/fluorescence; filed as Kd, often an IC50 or EC50 that approximates it; ≥ and ≤ were set here for values at or beyond the usual limits of such assays; details: source organism: Ebola virus Yambio0403
[44] = source organism: Orthohantavirus andesense
[45] = source organism: Orthohantavirus puumalaense
[46] = source organism: Escherichia coli O157:H7
[47] = source organism: Encephalitozoon cuniculi GB-M1
[48] = source organism: Zaire ebolavirus
[49] = source organism: Ebola virus Yambio0403

VALFSSCPV
0.002 µM: Kd [1]
1.85 µM: IC50 [2]

MTTSMTMSY
0.302 µM: Kd [3]
0.0475 µM: Kd ([4]; source organism: Yersinia pestis Nepal516)

QIQAGNFHW
0.0022 µM: Kd [4, 44]
≥ 20 µM: Kd [5, 44] | Kd [6] | Kd [7] | Kd [8, 44] | Kd [9, 44] | Kd [10, 44] | Kd [11, 44] | Kd [12, 44] | Kd [13, 44] | Kd [14, 45] | Kd [15, 45] | Kd [16, 45] | Kd [17, 45] | Kd [18, 45] | Kd [19, 45] | Kd [20, 45]

LPEFERRTL
0.0371 µM: Kd [21, 46]
4.22 µM: Kd [22]
0.0163 µM: Kd [24, 46]
≥ 20 µM: Kd [14, 46] | Kd [23, 46] | Kd [25] | Kd [26] | Kd [27, 46] | Kd [28] | Kd [29, 46] | Kd [30] | Kd [31] | Kd [32] | Kd [33] | Kd [34] | Kd [35, 46]

SPLPITLKY
0.002 µM: Kd [24, 47]
4.5 µM: Kd [21, 47]
≥ 20 µM: Kd [36] | Kd [37] | Kd [14, 47] | Kd [23, 47] | Kd [38] | Kd [15, 47] | Kd [27, 47] | Kd [39] | Kd [16, 47] | Kd [17, 47] | Kd [18, 47] | Kd [40] | Kd [35, 47] | Kd [41] | Kd [19, 47] | Kd [20, 47]

QSSGSSSSGF
≥ 20 µM: IC50 [42]

ESLLHQASW
≥ 20 µM: Kd [5, 48] | Kd [8, 48] | Kd [9, 48] | Kd [10, 48] | Kd [11, 48] | Kd [12, 48] | Kd [13, 48] | Kd [14, 49] | Kd [23, 48] | Kd [43] | Kd [15, 49] | Kd [29, 49] | Kd [16, 49] | Kd [17, 49] | Kd [18, 49] | Kd [19, 49] | Kd [20, 49]
0.0021 µM: Kd [4, 48]
